Patent US7919236 (GIVAUDAN, dated 2011)
Blank lines part the entries; values can stand above or below the molecule they belong to.

Tests used:
Test in all cases: cell-based or functional assay
[1] = target: human TAS2R16 bitter receptor (human) (UniProt Q9NYV7)
[2] = target: T1, mouse T2R5 bitter receptor (mouse, UniProt Q9JKT4 1-300)
T1 sequence (looked up): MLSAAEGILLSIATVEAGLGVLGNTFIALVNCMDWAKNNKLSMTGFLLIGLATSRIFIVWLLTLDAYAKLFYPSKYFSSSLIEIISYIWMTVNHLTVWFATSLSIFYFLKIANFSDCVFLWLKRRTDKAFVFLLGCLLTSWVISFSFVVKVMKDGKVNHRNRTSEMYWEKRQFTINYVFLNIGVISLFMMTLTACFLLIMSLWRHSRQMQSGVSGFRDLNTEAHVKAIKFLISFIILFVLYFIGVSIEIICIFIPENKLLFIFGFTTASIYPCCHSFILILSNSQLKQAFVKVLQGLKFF

[3] = target: human TAS1R2/TAS1R3 sweet taste receptor heterodimer (human) (UniProt Q8TE23)
Chain of human TAS1R2/TAS1R3 sweet taste receptor heterodimer (human) (Q8TE23 20-839, chain 1 of 2): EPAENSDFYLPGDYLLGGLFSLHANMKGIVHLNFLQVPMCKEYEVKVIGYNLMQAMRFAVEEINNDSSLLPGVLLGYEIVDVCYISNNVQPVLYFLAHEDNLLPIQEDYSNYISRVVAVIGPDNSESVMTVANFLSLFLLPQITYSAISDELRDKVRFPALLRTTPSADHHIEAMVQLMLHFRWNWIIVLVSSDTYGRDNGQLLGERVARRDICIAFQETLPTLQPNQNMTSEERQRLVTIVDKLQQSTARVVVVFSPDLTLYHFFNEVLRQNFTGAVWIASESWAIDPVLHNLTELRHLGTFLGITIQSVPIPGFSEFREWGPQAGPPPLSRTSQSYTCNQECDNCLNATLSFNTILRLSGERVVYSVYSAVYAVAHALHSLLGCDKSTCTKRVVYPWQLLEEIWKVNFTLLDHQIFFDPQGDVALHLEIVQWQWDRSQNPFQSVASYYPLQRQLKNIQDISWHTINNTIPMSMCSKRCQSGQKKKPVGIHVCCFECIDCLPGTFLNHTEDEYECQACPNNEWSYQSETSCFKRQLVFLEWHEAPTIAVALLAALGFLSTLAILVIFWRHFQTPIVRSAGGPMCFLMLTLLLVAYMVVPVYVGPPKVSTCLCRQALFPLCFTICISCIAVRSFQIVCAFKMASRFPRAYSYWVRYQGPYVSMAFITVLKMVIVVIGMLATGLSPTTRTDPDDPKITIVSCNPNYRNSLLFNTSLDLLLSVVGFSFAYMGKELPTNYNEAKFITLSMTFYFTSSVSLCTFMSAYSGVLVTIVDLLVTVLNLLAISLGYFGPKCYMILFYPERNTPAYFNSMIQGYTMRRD
Chain of human TAS1R2/TAS1R3 sweet taste receptor heterodimer (human) (Q7RTX0 21-852, chain 2 of 2, further chain): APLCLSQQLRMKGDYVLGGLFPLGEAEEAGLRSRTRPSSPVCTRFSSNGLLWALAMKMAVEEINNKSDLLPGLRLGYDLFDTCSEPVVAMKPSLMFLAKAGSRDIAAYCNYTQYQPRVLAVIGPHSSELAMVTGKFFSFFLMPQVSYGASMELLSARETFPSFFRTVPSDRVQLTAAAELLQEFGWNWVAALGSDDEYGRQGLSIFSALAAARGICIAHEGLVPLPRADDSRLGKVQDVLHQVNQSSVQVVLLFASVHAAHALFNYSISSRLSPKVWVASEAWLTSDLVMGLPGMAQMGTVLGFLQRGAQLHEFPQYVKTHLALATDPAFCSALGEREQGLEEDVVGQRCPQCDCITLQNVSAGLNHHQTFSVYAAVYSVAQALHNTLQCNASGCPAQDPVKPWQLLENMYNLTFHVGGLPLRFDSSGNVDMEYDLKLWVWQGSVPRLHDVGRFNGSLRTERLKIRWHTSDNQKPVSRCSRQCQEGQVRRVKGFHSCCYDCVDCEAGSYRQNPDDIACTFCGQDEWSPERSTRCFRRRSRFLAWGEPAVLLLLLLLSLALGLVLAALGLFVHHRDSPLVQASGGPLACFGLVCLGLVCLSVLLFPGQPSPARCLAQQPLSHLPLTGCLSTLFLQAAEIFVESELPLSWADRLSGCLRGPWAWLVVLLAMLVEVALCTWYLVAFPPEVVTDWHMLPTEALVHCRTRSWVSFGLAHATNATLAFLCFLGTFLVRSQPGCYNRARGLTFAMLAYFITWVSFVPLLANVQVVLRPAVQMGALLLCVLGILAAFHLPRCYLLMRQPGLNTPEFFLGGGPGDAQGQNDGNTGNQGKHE

[4] = target: human TAS1R2/TAS1R3 sweet taste receptor heterodimer (human, UniProt Q8TE23 20-839; Q7RTX0 21-852)
Chain of human TAS1R2/TAS1R3 sweet taste receptor heterodimer (Q8TE23 20-839, chain 1 of 2): as the sequence (Q8TE23 20-839, chain 1 of 2) above
Chain of human TAS1R2/TAS1R3 sweet taste receptor heterodimer (Q7RTX0 21-852, chain 2 of 2): as the sequence (Q7RTX0 21-852, chain 2 of 2, further chain) above

Chain of human TAS2R16 bitter receptor (human) (Q9NYV7 whole entry): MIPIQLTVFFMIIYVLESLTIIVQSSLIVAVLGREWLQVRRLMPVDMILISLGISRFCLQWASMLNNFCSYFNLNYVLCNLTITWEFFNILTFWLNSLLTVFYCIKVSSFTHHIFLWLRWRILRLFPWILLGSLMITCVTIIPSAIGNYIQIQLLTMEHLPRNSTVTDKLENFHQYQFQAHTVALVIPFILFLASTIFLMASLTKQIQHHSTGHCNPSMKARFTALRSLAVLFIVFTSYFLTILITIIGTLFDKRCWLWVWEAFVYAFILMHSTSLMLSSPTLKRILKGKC

increase in mean Fluo-4 calcium fluorescence over baseline after 5 mM phenyl-β-D-glucopyranoside [1]: 3490 RFU
increase in mean Fluo-4 calcium fluorescence over baseline after 10 µM cycloheximide [2]: 2570 RFU
Molecule: wild-type Gα16 (from UniProt P30679 1-374)

increase in mean Fluo-4 calcium fluorescence over baseline after 2.5 mM sucralose [3]: 1300 RFU
Molecule: Gα15

fluorescence signal after 2.5 mM aspartame, acesulfame K or sucralose, relative to wild-type Gα16 [4]: 2 fold vs wild-type Gα16
fluorescence signal after 10 uM cycloheximide, relative to wild-type Gα16 [2]: 5 fold vs wild-type Gα16
B1: Gα16-gustducin44 chimeric G-protein (other)
chain: MARSLTWRCCPWCLTEDEKAAARVDQEINRILLEQKKQDRGELKLLLLGPGESGKSTFIKQMRIIHGAGYSEEERKGFRPLVYQNIFVSMRAMIEAMERLQIPFSRPESKHHASLVMSQDPYKVTTFEKRYAAAMQWLWRDAGIRACYERRREFHLLDSAVYYLSHLERITEEGYVPTAQDVLRSRMPTTGINEYCFSVQKTNLRIVDVGGQKSERKKWIHCFENVIALIYLASLSEYDQCLEENNQENRMKESLALFGTILELPWFKSTSVILFLNKTDILEEKIPTSHLATYFPSFQGPKQDAEAAKRFILDMYTRMYTGCVDGPEGSNLKKEDKEIYSHMTCATDTQNVKFVFDAVTDIIIKENLKDCGLF
